B1: SecA N629* (SecA 1-629, N629D) (domain or fragment)
chain: MLIKLLTKVFGSRNDRTLRRMRKVVNIINAMEPEMEKLSDEELKGKTAEFRARLEKGEVLENLIPEAFAVVREASKRVFGMRHFDVQLLGGMVLNERCIAEMRTGEGKTLTATLPAYLNALTGKGVHVVTVNDYLAQRDAENNRPLFEFLGLTVGINLPGMPAPAKREAYAADITYGTNNEYGFDYLRDNMAFSPEERVQRKLHYALVDEVDSILIDEARTPLIISGPAEDSSEMYKRVNKIIPHLIRQEKEDSETFQGEGHFSVDEKSRQVNLTERGLVLIEELLVKEGIMDEGESLYSPANIMLMHHVTAALRAHALFTRDVDYIVKDGEVIIVDEHTGRTMQGRRWSDGLHQAVEAKEGVQIQNENQTLASITFQNYFRLYEKLAGMTGTADTEAFEFSSIYKLDTVVVPTNRPMIRKDLPDLVYMTEAEKIQAIIEDIKERTAKGQPVLVGTISIEKSELVSNELTKAGIKHNVLNAKFHANEAAIVAQAGYPAAVTIATNMAGRGTDIVLGGSWQAEVAALENPTAEQIEKIKADWQVRHDAVLEAGGLHIIGTERHESRRIDNQLRGRSGRQGDAGSSRFYLSMEDALMRIFASDRVSGMMRKLGMKPGEAIEHPWVTKAIAD
B2: SecA N649 (SecA 1-649) (domain or fragment)
chain: MLIKLLTKVFGSRNDRTLRRMRKVVNIINAMEPEMEKLSDEELKGKTAEFRARLEKGEVLENLIPEAFAVVREASKRVFGMRHFDVQLLGGMVLNERCIAEMRTGEGKTLTATLPAYLNALTGKGVHVVTVNDYLAQRDAENNRPLFEFLGLTVGINLPGMPAPAKREAYAADITYGTNNEYGFDYLRDNMAFSPEERVQRKLHYALVDEVDSILIDEARTPLIISGPAEDSSEMYKRVNKIIPHLIRQEKEDSETFQGEGHFSVDEKSRQVNLTERGLVLIEELLVKEGIMDEGESLYSPANIMLMHHVTAALRAHALFTRDVDYIVKDGEVIIVDEHTGRTMQGRRWSDGLHQAVEAKEGVQIQNENQTLASITFQNYFRLYEKLAGMTGTADTEAFEFSSIYKLDTVVVPTNRPMIRKDLPDLVYMTEAEKIQAIIEDIKERTAKGQPVLVGTISIEKSELVSNELTKAGIKHNVLNAKFHANEAAIVAQAGYPAAVTIATNMAGRGTDIVLGGSWQAEVAALENPTAEQIEKIKADWQVRHDAVLEAGGLHIIGTERHESRRIDNQLRGRSGRQGDAGSSRFYLSMEDALMRIFASDRVSGMMRKLGMKPGEAIEHPWVTKAIANAQRKVESRNFDIRKQLLEYD
B3: SecA N798* (SecA 1-798, D798R) (domain or fragment)
chain: MLIKLLTKVFGSRNDRTLRRMRKVVNIINAMEPEMEKLSDEELKGKTAEFRARLEKGEVLENLIPEAFAVVREASKRVFGMRHFDVQLLGGMVLNERCIAEMRTGEGKTLTATLPAYLNALTGKGVHVVTVNDYLAQRDAENNRPLFEFLGLTVGINLPGMPAPAKREAYAADITYGTNNEYGFDYLRDNMAFSPEERVQRKLHYALVDEVDSILIDEARTPLIISGPAEDSSEMYKRVNKIIPHLIRQEKEDSETFQGEGHFSVDEKSRQVNLTERGLVLIEELLVKEGIMDEGESLYSPANIMLMHHVTAALRAHALFTRDVDYIVKDGEVIIVDEHTGRTMQGRRWSDGLHQAVEAKEGVQIQNENQTLASITFQNYFRLYEKLAGMTGTADTEAFEFSSIYKLDTVVVPTNRPMIRKDLPDLVYMTEAEKIQAIIEDIKERTAKGQPVLVGTISIEKSELVSNELTKAGIKHNVLNAKFHANEAAIVAQAGYPAAVTIATNMAGRGTDIVLGGSWQAEVAALENPTAEQIEKIKADWQVRHDAVLEAGGLHIIGTERHESRRIDNQLRGRSGRQGDAGSSRFYLSMEDALMRIFASDRVSGMMRKLGMKPGEAIEHPWVTKAIANAQRKVESRNFDIRKQLLEYDDVANDQRRAIYSQRNELLDVSDVSETINSIREDVFKATIDAYIPPQSLEEMWDIPGLQERLKNDFDLDLPIAEWLDKEPELHEETLRERILAQSIEVYQRKEEVVGAEMMRHFEKGVMLQTLDSLWKEHLAAMDYLRQGIHLRGYAQKR
B4: SecA N619 (SecA 1-619) (domain or fragment)
chain: MLIKLLTKVFGSRNDRTLRRMRKVVNIINAMEPEMEKLSDEELKGKTAEFRARLEKGEVLENLIPEAFAVVREASKRVFGMRHFDVQLLGGMVLNERCIAEMRTGEGKTLTATLPAYLNALTGKGVHVVTVNDYLAQRDAENNRPLFEFLGLTVGINLPGMPAPAKREAYAADITYGTNNEYGFDYLRDNMAFSPEERVQRKLHYALVDEVDSILIDEARTPLIISGPAEDSSEMYKRVNKIIPHLIRQEKEDSETFQGEGHFSVDEKSRQVNLTERGLVLIEELLVKEGIMDEGESLYSPANIMLMHHVTAALRAHALFTRDVDYIVKDGEVIIVDEHTGRTMQGRRWSDGLHQAVEAKEGVQIQNENQTLASITFQNYFRLYEKLAGMTGTADTEAFEFSSIYKLDTVVVPTNRPMIRKDLPDLVYMTEAEKIQAIIEDIKERTAKGQPVLVGTISIEKSELVSNELTKAGIKHNVLNAKFHANEAAIVAQAGYPAAVTIATNMAGRGTDIVLGGSWQAEVAALENPTAEQIEKIKADWQVRHDAVLEAGGLHIIGTERHESRRIDNQLRGRSGRQGDAGSSRFYLSMEDALMRIFASDRVSGMMRKLGMKPGEAIE
B5: SecA N831 (SecA 1-831) (domain or fragment)
chain: MLIKLLTKVFGSRNDRTLRRMRKVVNIINAMEPEMEKLSDEELKGKTAEFRARLEKGEVLENLIPEAFAVVREASKRVFGMRHFDVQLLGGMVLNERCIAEMRTGEGKTLTATLPAYLNALTGKGVHVVTVNDYLAQRDAENNRPLFEFLGLTVGINLPGMPAPAKREAYAADITYGTNNEYGFDYLRDNMAFSPEERVQRKLHYALVDEVDSILIDEARTPLIISGPAEDSSEMYKRVNKIIPHLIRQEKEDSETFQGEGHFSVDEKSRQVNLTERGLVLIEELLVKEGIMDEGESLYSPANIMLMHHVTAALRAHALFTRDVDYIVKDGEVIIVDEHTGRTMQGRRWSDGLHQAVEAKEGVQIQNENQTLASITFQNYFRLYEKLAGMTGTADTEAFEFSSIYKLDTVVVPTNRPMIRKDLPDLVYMTEAEKIQAIIEDIKERTAKGQPVLVGTISIEKSELVSNELTKAGIKHNVLNAKFHANEAAIVAQAGYPAAVTIATNMAGRGTDIVLGGSWQAEVAALENPTAEQIEKIKADWQVRHDAVLEAGGLHIIGTERHESRRIDNQLRGRSGRQGDAGSSRFYLSMEDALMRIFASDRVSGMMRKLGMKPGEAIEHPWVTKAIANAQRKVESRNFDIRKQLLEYDDVANDQRRAIYSQRNELLDVSDVSETINSIREDVFKATIDAYIPPQSLEEMWDIPGLQERLKNDFDLDLPIAEWLDKEPELHEETLRERILAQSIEVYQRKEEVVGAEMMRHFEKGVMLQTLDSLWKEHLAAMDYLRQGIHLRGYAQKDPKQEYKRESFSMFAAMLESLKYEVISTLSKVQV
B6: SecA N609 (SecA 1-609) (domain or fragment)
chain: MLIKLLTKVFGSRNDRTLRRMRKVVNIINAMEPEMEKLSDEELKGKTAEFRARLEKGEVLENLIPEAFAVVREASKRVFGMRHFDVQLLGGMVLNERCIAEMRTGEGKTLTATLPAYLNALTGKGVHVVTVNDYLAQRDAENNRPLFEFLGLTVGINLPGMPAPAKREAYAADITYGTNNEYGFDYLRDNMAFSPEERVQRKLHYALVDEVDSILIDEARTPLIISGPAEDSSEMYKRVNKIIPHLIRQEKEDSETFQGEGHFSVDEKSRQVNLTERGLVLIEELLVKEGIMDEGESLYSPANIMLMHHVTAALRAHALFTRDVDYIVKDGEVIIVDEHTGRTMQGRRWSDGLHQAVEAKEGVQIQNENQTLASITFQNYFRLYEKLAGMTGTADTEAFEFSSIYKLDTVVVPTNRPMIRKDLPDLVYMTEAEKIQAIIEDIKERTAKGQPVLVGTISIEKSELVSNELTKAGIKHNVLNAKFHANEAAIVAQAGYPAAVTIATNMAGRGTDIVLGGSWQAEVAALENPTAEQIEKIKADWQVRHDAVLEAGGLHIIGTERHESRRIDNQLRGRSGRQGDAGSSRFYLSMEDALMRIFASDRVSGMMRK
B7: SecA N828 (SecA 1-828) (domain or fragment)
chain: MLIKLLTKVFGSRNDRTLRRMRKVVNIINAMEPEMEKLSDEELKGKTAEFRARLEKGEVLENLIPEAFAVVREASKRVFGMRHFDVQLLGGMVLNERCIAEMRTGEGKTLTATLPAYLNALTGKGVHVVTVNDYLAQRDAENNRPLFEFLGLTVGINLPGMPAPAKREAYAADITYGTNNEYGFDYLRDNMAFSPEERVQRKLHYALVDEVDSILIDEARTPLIISGPAEDSSEMYKRVNKIIPHLIRQEKEDSETFQGEGHFSVDEKSRQVNLTERGLVLIEELLVKEGIMDEGESLYSPANIMLMHHVTAALRAHALFTRDVDYIVKDGEVIIVDEHTGRTMQGRRWSDGLHQAVEAKEGVQIQNENQTLASITFQNYFRLYEKLAGMTGTADTEAFEFSSIYKLDTVVVPTNRPMIRKDLPDLVYMTEAEKIQAIIEDIKERTAKGQPVLVGTISIEKSELVSNELTKAGIKHNVLNAKFHANEAAIVAQAGYPAAVTIATNMAGRGTDIVLGGSWQAEVAALENPTAEQIEKIKADWQVRHDAVLEAGGLHIIGTERHESRRIDNQLRGRSGRQGDAGSSRFYLSMEDALMRIFASDRVSGMMRKLGMKPGEAIEHPWVTKAIANAQRKVESRNFDIRKQLLEYDDVANDQRRAIYSQRNELLDVSDVSETINSIREDVFKATIDAYIPPQSLEEMWDIPGLQERLKNDFDLDLPIAEWLDKEPELHEETLRERILAQSIEVYQRKEEVVGAEMMRHFEKGVMLQTLDSLWKEHLAAMDYLRQGIHLRGYAQKDPKQEYKRESFSMFAAMLESLKYEVISTLSK

These molecules were tested against SecYEG-SecDF•YajC (E. coli) (UniProt P0AGA2).

Molecule	% pOmpA Translocation, +YEG: in vitro translocation of pOmpA into liposomes with SecYEG-SecDF•YajC (% pOmpA Translocation)	Channel Activity, μA, +YEG: ion current in Xenopus oocytes injected with SecA, liposomes, SecYEG-SecDF•YajC, pOmpA, ATP-Mg [μA]	Channel Activity, μA, +YEG: ion current in Xenopus oocytes injected with the fragment, liposomes, SecYEG-SecDF•YajC, pOmpA, ATP-Mg [μA]
SecA N772 (SecA 1-772) (from UniProt P10408 1-772) (domain or fragment)	0	–	–
E. coli SecA (from UniProt P10408 1-901) (natural protein)	97	7	–
B1	–	–	0.4
B2	0	–	5.8
B3	0	–	–
B4	0	–	0
B5	71.2	–	5.8
B6	0	–	0
B7	7.6	–	–
